Data taken from patent publication US20070148163A1 (Kyowa Kirin, published 2007).
cellulose membrane = not defined here

Assays:
Assay in all cases: SPOT peptide array (13-mers on cellulose membrane), Western-type detection, spot intensity by LumiImager
[1] = molecular target: T1, 17th of the 82 13-mer peptides covering the extracellular region of CD40 (cysteine pairing not given here; reading uncertain)
T1 construct: also called 17th peptide
T1 peptide: Ac-EFTETECLPCGES-{cellulose membrane}
Description: (§1) The reaction thereafter was carried out based on a conventional Western analysis (see Reineke, U. et al. (2001), “Epitope mapping with synthetic peptides prepared by SPOT synthesis.” Antibody Engineering (Springer Lab Manual) Eds.: Kontermann/Dubel, 433-459, for example). In the analysis, coloring intensity of each spot was quantified using Lumilmager™ (Boehringer-Mannheim Corp.) (FIG. 1A-1, 1A-2, 1B-1 and B-2).

[2] = molecular target: T2, 22nd of the 82 13-mer peptides covering the extracellular region of CD40 (reading uncertain)
T2 construct: also called 22nd peptide
T2 peptide: Ac-GESEFLDTWNRET-{cellulose membrane}
Description: as §1

[3] = molecular target: T3, 23rd of the 82 13-mer peptides covering the extracellular region of CD40 (reading uncertain)
T3 construct: also called 23rd peptide
T3 peptide: Ac-SEFLDTWNRETHC-{cellulose membrane}
Description: as §1

[4] = molecular target: T4, 18th of the 82 13-mer peptides covering the extracellular region of CD40 (cysteine pairing not given here; reading uncertain)
T4 construct: also called 18th peptide
T4 peptide: Ac-TETECLPCGESEF-{cellulose membrane}
Description: as §1

[5] = molecular target: T5, 14th of the 82 13-mer peptides covering the extracellular region of CD40 (cysteine pairing not given here; reading uncertain)
T5 construct: also called 14th peptide
T5 peptide: Ac-LVSDCTEFTETEC-{cellulose membrane}
Description: as §1

[6] = molecular target: T6, 15th of the 82 13-mer peptides covering the extracellular region of CD40 (cysteine pairing not given here; reading uncertain)
T6 construct: also called 15th peptide
T6 peptide: Ac-SDCTEFTETECLP-{cellulose membrane}
Description: as §1

[7] = molecular target: T7, 16th of the 82 13-mer peptides covering the extracellular region of CD40 (cysteine pairing not given here; reading uncertain)
T7 construct: also called 16th peptide
T7 peptide: Ac-CTEFTETECLPCG-{cellulose membrane}
Description: as §1

[8] = molecular target: T8, 19th of the 82 13-mer peptides covering the extracellular region of CD40 (cysteine pairing not given here; reading uncertain)
T8 construct: also called 19th peptide
T8 peptide: Ac-TECLPCGESEFLD-{cellulose membrane}
Description: as §1

[9] = molecular target: T9, 12th of the 82 13-mer peptides covering the extracellular region of CD40 (reading uncertain)
T9 construct: also called 12th peptide
T9 peptide: Ac-PGQKLVSDCTEFT-{cellulose membrane}
Description: as §1

[10] = molecular target: T10, 64th of the 82 13-mer peptides covering the extracellular region of CD40 (reading uncertain)
T10 construct: also called 64th peptide
T10 peptide: Ac-PVGFFSNVSSAFE-{cellulose membrane}
Description: as §1

[11] = molecular target: T11, 13th of the 82 13-mer peptides covering the extracellular region of CD40 (reading uncertain)
T11 construct: also called 13th peptide
T11 peptide: Ac-QKLVSDCTEFTET-{cellulose membrane}
Description: as §1

[12] = molecular target: T12, 20th of the 82 13-mer peptides covering the extracellular region of CD40 (cysteine pairing not given here; reading uncertain)
T12 construct: also called 20th peptide
T12 peptide: Ac-CLPCGESEFLDTW-{cellulose membrane}
Description: as §1

[13] = molecular target: T13, 21st of the 82 13-mer peptides covering the extracellular region of CD40 (reading uncertain)
T13 construct: also called 21st peptide
T13 peptide: Ac-PCGESEFLDTWNR-{cellulose membrane}
Description: as §1

binding result [1]: binds
binding result [2]: binds
binding result [3]: binds
binding result [4]: binds
binding result [5]: binds
binding result [6]: binds
binding result [7]: binds
binding result [8]: binds
binding result [9]: binds
binding result [10]: binds
binding result [11]: binds
binding result [12]: binds
binding result [13]: binds
B1: 2105 antibody (original IgG2) (antibody, V domains shown)
VH: EVQLVESGGGLVQPGRSLRLSCAASGFTFDDYAMHWVRQAPGKGLEWVSGISWNSGSLVHADSVKGRFTISRDNAKNSLYLQMNSLRAEDTALYYCARDRLFRGVRYYGMDVWGQGTTVTVSS
VL: EIVLTQSPATLSLSPGERATLSCRASQSVSSYLAWYQQKPGQAPRLLIYDASNRATGIPARFSGSGSGTDFTLTISSLEPEDFAVYYCQQRSHWLTFGGGTKVEIK
